Assay results reported in paper PMC7026663 (Nucleic Acids Research, 2019).

Tests used:
[1] = target: H2A/H2B dimer (UniProt P06897;P02281); assay: ITC
[2] = target: H3/H4 tetramer (UniProt P84233;P62799); assay: ITC

stoichiometry N [1]: 1
stoichiometry N [2]: 1
B1: AtFKBP53 NTD (residues 1–112) (domain or fragment)
chain: MGFWGLEVKPGKPQAYNPKNEQGKIHVTQATLGTGLSKEKSVIQCSIGDKAPIALCSLLPNKIECCPLNLEFDDDDEPVEFTVTGDRSIHLSGFLEYYQDDEDDYEHDEDDS
